The values that follow come from patent publication US20090004644 (Conceptual MindWorks, Inc, published 2009).

Data set [1] deals with Botulinum neurotoxin type A heavy chain (UniProt P0DPI1 P0DPI1:449-1296).
The target in data set [2] is Botulinum neurotoxin type B heavy chain (UniProt B1INP5 B1INP5:442-1291).
For data set [3], the target named is Botulinum neurotoxin type A light chain (UniProt P0DPI1 P0DPI1:2-448).
Data set [4] deals with Botulinum neurotoxin type B light chain (UniProt B1INP5 B1INP5:2-441).
Botulinum neurotoxin type B light chain, sequence (B1INP5 2-441, one chain of several): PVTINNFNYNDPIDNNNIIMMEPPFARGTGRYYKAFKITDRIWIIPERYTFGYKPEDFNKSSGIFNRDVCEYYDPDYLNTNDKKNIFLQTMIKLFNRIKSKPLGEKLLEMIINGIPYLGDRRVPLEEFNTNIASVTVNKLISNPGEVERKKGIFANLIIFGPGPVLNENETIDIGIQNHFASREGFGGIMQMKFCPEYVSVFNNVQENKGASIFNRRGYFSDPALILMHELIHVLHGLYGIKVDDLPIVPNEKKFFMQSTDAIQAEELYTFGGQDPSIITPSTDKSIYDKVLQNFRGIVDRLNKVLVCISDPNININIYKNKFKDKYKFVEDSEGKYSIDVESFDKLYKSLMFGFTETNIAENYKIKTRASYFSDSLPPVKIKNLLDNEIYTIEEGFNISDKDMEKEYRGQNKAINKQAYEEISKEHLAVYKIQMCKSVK

Botulinum neurotoxin type B heavy chain, sequence (B1INP5 442-1291, one chain of several): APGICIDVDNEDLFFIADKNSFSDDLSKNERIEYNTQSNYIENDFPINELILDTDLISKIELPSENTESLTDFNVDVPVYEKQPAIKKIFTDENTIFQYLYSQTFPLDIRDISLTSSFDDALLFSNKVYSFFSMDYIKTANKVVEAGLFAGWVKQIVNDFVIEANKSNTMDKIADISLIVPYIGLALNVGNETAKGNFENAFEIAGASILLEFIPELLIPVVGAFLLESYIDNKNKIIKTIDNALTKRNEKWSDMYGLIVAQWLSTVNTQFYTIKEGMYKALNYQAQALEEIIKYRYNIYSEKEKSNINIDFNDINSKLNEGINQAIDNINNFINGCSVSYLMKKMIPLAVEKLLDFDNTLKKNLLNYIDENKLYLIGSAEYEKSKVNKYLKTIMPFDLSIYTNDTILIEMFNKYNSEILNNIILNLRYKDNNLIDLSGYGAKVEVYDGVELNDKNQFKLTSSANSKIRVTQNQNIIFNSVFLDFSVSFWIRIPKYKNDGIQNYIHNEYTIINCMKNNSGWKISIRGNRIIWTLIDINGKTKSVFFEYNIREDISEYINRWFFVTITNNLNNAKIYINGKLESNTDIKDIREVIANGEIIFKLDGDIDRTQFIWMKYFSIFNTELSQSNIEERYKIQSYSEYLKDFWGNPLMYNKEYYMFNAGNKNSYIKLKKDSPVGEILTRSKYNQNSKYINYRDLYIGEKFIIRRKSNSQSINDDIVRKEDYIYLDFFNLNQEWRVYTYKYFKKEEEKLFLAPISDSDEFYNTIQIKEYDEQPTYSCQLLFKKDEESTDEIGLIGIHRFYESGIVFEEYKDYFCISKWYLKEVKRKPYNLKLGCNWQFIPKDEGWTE
Botulinum neurotoxin type A heavy chain, sequence (P0DPI1 449-1296, one chain of several): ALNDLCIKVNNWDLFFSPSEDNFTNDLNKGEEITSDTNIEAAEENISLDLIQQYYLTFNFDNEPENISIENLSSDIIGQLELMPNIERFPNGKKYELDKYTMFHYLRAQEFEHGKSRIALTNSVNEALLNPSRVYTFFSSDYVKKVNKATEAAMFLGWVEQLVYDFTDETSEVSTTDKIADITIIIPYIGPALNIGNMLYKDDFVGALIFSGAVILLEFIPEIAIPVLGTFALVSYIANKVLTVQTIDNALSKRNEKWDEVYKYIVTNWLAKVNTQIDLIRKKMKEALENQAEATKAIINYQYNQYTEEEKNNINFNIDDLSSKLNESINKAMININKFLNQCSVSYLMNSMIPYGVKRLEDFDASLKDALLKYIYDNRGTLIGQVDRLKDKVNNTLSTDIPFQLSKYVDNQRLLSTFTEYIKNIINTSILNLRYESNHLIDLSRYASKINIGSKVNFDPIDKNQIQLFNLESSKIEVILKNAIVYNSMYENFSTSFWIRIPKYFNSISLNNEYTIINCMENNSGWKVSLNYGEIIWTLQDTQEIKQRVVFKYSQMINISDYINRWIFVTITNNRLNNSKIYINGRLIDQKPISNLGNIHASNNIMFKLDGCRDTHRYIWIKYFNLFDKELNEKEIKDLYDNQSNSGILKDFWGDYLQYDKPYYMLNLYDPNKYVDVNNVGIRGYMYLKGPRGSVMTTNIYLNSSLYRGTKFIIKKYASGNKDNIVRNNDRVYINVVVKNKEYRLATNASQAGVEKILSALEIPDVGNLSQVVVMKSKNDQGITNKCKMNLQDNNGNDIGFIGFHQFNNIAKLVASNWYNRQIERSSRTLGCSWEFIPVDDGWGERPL
Botulinum neurotoxin type A light chain, sequence (P0DPI1 2-448, one chain of several): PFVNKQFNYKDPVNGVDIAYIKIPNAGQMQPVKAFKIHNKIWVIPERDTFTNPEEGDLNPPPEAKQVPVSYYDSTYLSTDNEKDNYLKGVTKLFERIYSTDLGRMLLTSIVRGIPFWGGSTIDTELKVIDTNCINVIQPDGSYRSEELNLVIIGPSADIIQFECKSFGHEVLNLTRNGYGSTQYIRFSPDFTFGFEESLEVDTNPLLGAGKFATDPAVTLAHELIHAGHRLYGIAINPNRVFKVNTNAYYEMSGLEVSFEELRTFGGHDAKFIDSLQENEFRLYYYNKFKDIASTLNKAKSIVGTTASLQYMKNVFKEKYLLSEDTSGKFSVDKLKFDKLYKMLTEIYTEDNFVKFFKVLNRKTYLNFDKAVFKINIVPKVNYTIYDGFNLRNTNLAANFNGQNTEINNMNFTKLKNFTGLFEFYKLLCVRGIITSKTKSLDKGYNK

B1: 4(+) SELEX holotoxin aptamer (DCE-4) (ssDNA)
DNA: CATCCGTCACACCTGCTCTGCTATCACATGCCTGCTGAAGTGGTGTTGGCTCCCGTATCA
For B1, the binding result in data set [1] and in data set [2] was “binds” throughout.

B2: LCA 1(+) (DCE-1) (ssDNA)
DNA: AGTCTAGAGGGCCCCAGAATACACCCGACAACTAGATACCCATCAAAAGTCCAGCAAAGGATGCAGGGGT
As to B2, the values for the binding result in data set [1], in data set [3] and in data set [2] were “no binding”, “binds” and “no binding”, respectively.

B3: LCB 2(+) (DCE-2) (ssDNA)
DNA: AGTCTAGAGGGCCCCAGAATTATCCACTAGCGGGAAGTAGTACATCTCACCCAGCAAAGGATGCAGGGGT
Take B3: in data set [4], the binding result is “binds”.

B4: 3(+) SELEX LCA aptamer (DCE-3) (ssDNA)
DNA: CATCCGTCACACCTGCTCTGGGGATGTGTGGTGTTGGCTCCCGTATCAAGGGCGAATTCT
For B4, the binding result in data set [1], in data set [3], in data set [4] and in data set [2] was “binds” throughout.
